Results taken from publication PMC6374739.

B1: mCherry-UVR8-GFP (wild-type UV … LOCUS 8, from the pFRET-NcCg-DEST vector) [Arabidopsis thaliana] / itself (parent)
chain: MAEDMAADEVTAPPRKVLIISAGASHSVALLSGDIVCSWGRGEDGQLGHGDAEDRPSPTQLSALDGHQIVSVTCGADHTVAYSQSGMEVYSWGWGDFGRLGHGNSSDLFTPLPIKALHGIRIKQIACGDSHCLAVTMEGEVQSWGRNQNGQLGLGDTEDSLVPQKIQAFEGIRIKMVAAGAEHTAAVTEDGDLYGWGWGRYGNLGLGDRTDRLVPERVTSTGGEKMSMVACGWRHTISVSYSGALYTYGWSKYGQLGHGDLEDHLIPHKLEALSNSFISQISGGWRHTMALTSDGKLYGWGWNKFGQVGVGNNLDQCSPVQVRFPDDQKVVQVSCGWRHTLAVTERNNVFAWGRGTNGQLGIGESVDRNFPKIIEALSVDGASGQHIESSNIDPSSGKSWVSPAERYAVVPDETGLTDGSSKGNGGDISVPQTDVKRVRI

Columns and labels:
Settings in all cases: with itself, read off a plot
itself [1] = variants of: B1; assay: FRET by acceptor photobleaching in tobacco leaves, pFRET-NcCg-DEST vector
itself [2] = variants of: B1; assay: FRET (sensitized emission ratio mCherry(488)/GFP(488)) in tobacco leaves, pFRET-NcCg-DEST vector
itself [3] = variants of: B1; assay: intermolecular FRET (sensitized emission ratio mCherry(488)/GFP(488)) in tobacco leaves, pFRET-2in1-DEST vector
[4] = +UV-B: 3 μmol m–2 s–1 broadband UV-B for 1 hour, parent: 11
[5] = +UV-B: 3 μmol m–2 s–1 broadband UV-B for 1 hour, parent: 0.5
[6] = +UV-B: 3 μmol m–2 s–1 broadband UV-B for 1 hour, parent: 0.44

| response (itself [1]; [4]) [%] | response (itself [1]; -UV-B, parent: 18) [%] | Variant | response (itself [2]; [5]) | response (itself [2]; -UV-B, parent: 0.56) | response (itself [3]; [6]) | response (itself [3]; -UV-B, parent: 0.5) |
| --- | --- | --- | --- | --- | --- | --- |
| 9.7 | 9.6 | MAEDMAADEVTAPPRKVLIISAGASHSVALLSGDIVCSWGRGEDGQLGHGDAEDRPSPTQLSALDGHQIVSVTCGADHTVAYSQSGMEVYSWGWGNFGRLGHGNSSNLFTPLPIKALHGIRIKQIACGDSHCLAVTMEGEVQSWGRNQNGQLGLGDTEDSLVPQKIQAFEGIRIKMVAAGAEHTAAVTEDGDLYGWGWGRYGNLGLGDRTDRLVPERVTSTGGEKMSMVACGWRHTISVSYSGALYTYGWSKYGQLGHGDLEDHLIPHKLEALSNSFISQISGGWRHTMALTSDGKLYGWGWNKFGQVGVGNNLDQCSPVQVRFPDDQKVVQVSCGWRHTLAVTERNNVFAWGRGTNGQLGIGESVDRNFPKIIEALSVDGASGQHIESSNIDPSSGKSWVSPAERYAVVPDETGLTDGSSKGNGGDISVPQTDVKRVRI [chain 1 D96N D107N] | 0.43 | 0.43 | 0.33 | 0.33 |
| 17 | 17 | MAEDMAADEVTAPPRKVLIISAGASHSVALLSGDIVCSWGRGEDGQLGHGDAEDRPSPTQLSALDGHQIVSVTCGADHTVAYSQSGMEVYSWGWGDFGRLGHGNSSDLFTPLPIKALHGIRIKQIACGDSHCLAVTMEGEVQSWGRNQNGQLGLGDTEDSLVPQKIQAFEGIRIKMVAAGAEHTAAVTEDGDLYGWGWGRYGNLGLGDRTDRLVPERVTSTGGEKMSMVACGWRHTISVSYSGALYTYGWSKYGQLGHGDLEDHLIPHKLEALSNSFISQISGGFRHTMALTSDGKLYGWGWNKFGQVGVGNNLDQCSPVQVRFPDDQKVVQVSCGWRHTLAVTERNNVFAWGRGTNGQLGIGESVDRNFPKIIEALSVDGASGQHIESSNIDPSSGKSWVSPAERYAVVPDETGLTDGSSKGNGGDISVPQTDVKRVRI [chain 1 W285F] | 0.58 | 0.59 | 0.51 | 0.5 |
